Laboratory results taken from doi:10.1101/609735 (bioRxiv, 2019).

Target: T1, mouse FLT1-FC chimeric protein with His-tag (mouse, UniProt P35969 23-759)
T1 sequence (looked up): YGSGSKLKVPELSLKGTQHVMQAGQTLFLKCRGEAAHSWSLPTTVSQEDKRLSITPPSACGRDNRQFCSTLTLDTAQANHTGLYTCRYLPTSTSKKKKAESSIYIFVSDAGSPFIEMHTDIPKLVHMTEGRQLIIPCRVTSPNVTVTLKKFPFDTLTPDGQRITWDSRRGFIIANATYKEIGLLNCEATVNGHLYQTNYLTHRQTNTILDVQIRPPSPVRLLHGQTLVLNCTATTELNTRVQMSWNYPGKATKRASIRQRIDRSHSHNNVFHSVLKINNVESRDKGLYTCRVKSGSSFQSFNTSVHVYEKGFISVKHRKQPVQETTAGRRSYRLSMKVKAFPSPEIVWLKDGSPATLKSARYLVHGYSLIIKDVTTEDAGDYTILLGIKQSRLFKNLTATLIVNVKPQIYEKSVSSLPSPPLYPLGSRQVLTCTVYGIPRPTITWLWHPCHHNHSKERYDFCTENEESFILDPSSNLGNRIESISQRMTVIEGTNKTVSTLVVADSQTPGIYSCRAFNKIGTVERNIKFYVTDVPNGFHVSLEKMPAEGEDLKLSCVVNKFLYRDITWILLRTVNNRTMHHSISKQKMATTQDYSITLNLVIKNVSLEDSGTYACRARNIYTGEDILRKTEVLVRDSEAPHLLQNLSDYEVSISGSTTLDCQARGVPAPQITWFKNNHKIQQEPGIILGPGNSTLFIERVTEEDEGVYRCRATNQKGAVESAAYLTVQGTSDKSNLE
Test: ELISA

B1: recombinant mouse PlGF2 (ligand, UniProt P49764 19-158, looked up)
chain: VHSQGALSAGNNSTEVEVVPFNEVWGRSYCRPMEKLVYILDEYPDEVSHIFSPSCVLLSRCSGCCGDEGLHCVPIKTANITMQILKIPPNRDPHFYVEMTFSQDVLCECRPILETTKAERRKTKGKRKRSRNSQTEEPHP
binding result: binds
